Key:
[1] = target: Chaetomium thermophilum NAT10 (CtNAT10), E.coli produced recombinant (Chaetomium thermophilum); test: mass photometry
[2] = target: Chaetomium thermophilum NAT10 (CtNAT10), Sf9 produced recombinant (Chaetomium thermophilum); test: mass photometry

| Substance | stoichiometry N [1] | stoichiometry N [2] |
| --- | --- | --- |
| Chaetomium thermophilum NAT10 (CtNAT10), E.coli produced recombinant (enzyme) | 2 |  |
| Chaetomium thermophilum NAT10 (CtNAT10), Sf9 produced recombinant (enzyme) |  | 2 |
